Reference: US20210179728A1 (OSE IMMUNOTHERAPEUTICS, published 2021)
Each block holds one binder with its values, some of them ahead of it.

Columns and labels:
[1] = molecular target: T1, recombinant hSIRPa (Sino Biologicals, reference 11612-H08H) (human, UniProt P78324 31-370); test: competition ELISA on coated SIRPa-His; competitor biotinylated CD47-Fc at 6 ug/ml, streptavidin-peroxidase [panel CD86]
T1 construct: also called SIRPa-His; human SIRPa-His; not shown: His tag (histidine tail)
Method: (§1) Method: For competitive ELISA assay, recombinant hSIRPa (Sino Biologicals, Beijing, China; reference 11612-H08H) was immobilized on plastic at 0.5 μg/ml in carbonate buffer (pH9.2).

[2] = molecular target: T2, CTLA4-Fc (human, UniProt P16410 36-161, limits assumed); test: ELISA: modified antibody (concentration on the axis) captured on SIRPa-His, then CTLA4-Fc, detected with mouse anti-human CTLA4 [panel CD86]
T2 construct: not shown: Fc; not specified
From the text: (§2) FIG. 24. Ligand binding assay with the different modified anti-SIRPa antibodies by ELISA.

[3] = molecular target: T1, recombinant hSIRPa (Sino Biologicals, …); test: ELISA on immobilized SIRPa-His, peroxidase anti-human IgG, DO 450nm [panel CD86]
Method: (§3) Method: For ELISA assay, recombinant hSIRPa (Sino Biologicals, Beijing, China; reference 11612-H08H) was immobilized on plastic at 0.5 μg/ml in carbonate buffer (pH9.2) and different modified anti-SIRPa antibodies were added to measure binding to SIRPa.

[4] = molecular target: T1, recombinant hSIRPa (Sino Biologicals, …); test: ELISA on immobilized SIRPa-His, peroxidase anti-human IgG, DO 450nm [panel OX40L]
Method: as §3

[5] = molecular target: T3, OX40Fc (human, UniProt P43489 29-216); test: ELISA: modified antibody (concentration on the axis) captured on SIRPa-His, then OX40Fc, detected with mouse anti-human OX40 [panel OX40L]
T3 construct: not shown: Fc; not specified
T3 sequence (looked up): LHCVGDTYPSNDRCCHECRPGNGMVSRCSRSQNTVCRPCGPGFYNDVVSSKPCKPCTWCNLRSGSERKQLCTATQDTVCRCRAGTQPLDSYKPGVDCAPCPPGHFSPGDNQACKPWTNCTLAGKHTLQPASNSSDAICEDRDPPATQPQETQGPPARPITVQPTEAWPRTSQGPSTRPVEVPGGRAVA
From the text: as §2

[6] = molecular target: T1, recombinant hSIRPa (Sino Biologicals, …); test: ELISA on immobilized hSIRPa-His, anti-human IgG detection, third experiment
Method: (§4) Method: The binding activity of the anti-SIRPa antibodies was assessed by ELISA.

[7] = molecular target: T1, recombinant hSIRPa (Sino Biologicals, …); test: competition ELISA on immobilized SIRPa-His; competitor biotinylated CD47-Fc at 6 ug/ml, streptavidin-peroxidase [second experiment table]
Method: as §1

[8] = molecular target: T1, recombinant hSIRPa (Sino Biologicals, …); test: ELISA on immobilized hSIRPa-His, anti-human IgG detection, first experiment; first experiment
Method: as §4

[9] = molecular target: T4, recombinant hSIRPg-His (Sino Biologicals, reference 11828-H08H) (human, UniProt Q9P1W8 29-360); test: BLI (Blitz); SIRPg-His on Ni-NTA biosensor, antibody at 10 ug/ml or 20 ug/ml (Example 9) [B, table A]
T4 construct: also called human SIRPg-His; not shown: His tag
Method: (§5) FIG. 8. (A) Affinity analysis by Blitz of anti-SIRP antibodies on human SIRPg recombinant protein. SIRPg-His recombinant protein was immobilized onto a NINTA biosensor and the indicated antibodies were added at 10 μg/ml. […] (B) Binding analysis by ELISA assay of anti-SIRP antibodies on SIRPg (human SIRPg-His coating and anti-human kappa detection).
(§6) Method: This method was performed with a Blitz (Forte Bio; USA; reference C22-2 No 61010-1). Recombinant hSIRPg-His (Sino Biologicals, Beijing, China; reference 11828-H08H) was immobilized at 10 μg/ml by histidine tail into a Ni-NTA biosensor (Forte Bio; USA; reference 18-0029) for 30 seconds. Then, an anti-SIRPa antibody was associated at 20 μg/mL for 120 seconds. The dissociation of anti-SIRPa antibody was made in kinetics buffer for 120 seconds. Analysis of data was made with the Blitz pro 1.2 software, which calculated association constant (ka) and dissociation constant (kd) and determined the affinity constant KD […].

[10] = molecular target: T1, recombinant hSIRPa (Sino Biologicals, …); test: SPR (Biacore); SIRPa-His immobilized on CM5 chip, antibody injected
Method: FIG. 2. Affinity analysis by Biacore of anti-SIRP antibodies on human SIRPa recombinant protein. SIRPa-His recombinant protein was immobilized onto a CM5 chip at 5 μg/ml (500 RU) and the indicated antibodies were added at different concentration.
Method: Recombinant hSIRPa (Sino Biologicals, Beijing, China; reference 11612-H08H) was immobilized into a CM5 sensor chip (GeHealthcare; France) at 5 μg/ml (500 RU) and antibodies were applied at different concentrations with a flow rate of 40 μl/min. Analysis was performed with a BIAcore 3000 (Biacore, GeHealthcare).

[11] = molecular target: T5, recombinant hSIRPb-His (Antibodies-online, reference ABIN3077231) (human, UniProt Q5TFQ8 30-371); test: BLI (Blitz); SIRPb-His on Ni-NTA biosensor, antibody at 20 ug/ml [B, table A]
T5 construct: also called SIRPb-His (Blitz); not shown: His tag
Method: as §5, with “7.” for “8.”, “SIRPb” for “SIRPg”, “SIRPb-His” for “SIRPg-His”, “20” for “10”, “analysis” for “analysis by ELISA assay”, “antibodies” for “antibodies on SIRPg”
as §6, with “hSIRPb-His (Antibodies-online; USA;” for “hSIRPg-His (Sino Biologicals, Beijing, China;”, “ABIN3077231)” for “11828-H08H)”

[12] = molecular target: T1, recombinant hSIRPa (Sino Biologicals, …); test: ELISA on immobilized hSIRPa-His, anti-human IgG detection, second experiment; second experiment
Method: as §4

[13] = molecular target: T1, recombinant hSIRPa (Sino Biologicals, …); test: ELISA on immobilized SIRPa-His, anti-human detection, DO 450nm [B,C, panel B table]

IC50 (read off the curve) [1]: ~200 ng/mL | binding result [2]: binds | EC50 (read off the curve) [3]: ~9 ng/mL
B1: modified anti-SIRPa HEFLB antibody with ECD of CD86 on the heavy chain (antibody, human IgG4 S228P, kappa)
heavy: not shown
light: DVVMTQSPLSLPVTLGQPASISCRSSQSLVHSYGNTYLYWFQQRPGQSPRLLIYRVSNRFSGVPDRFSGSGSGTDFTLKISRVEAEDVGVYYCFQGTHVPYTFGGGTKVEIKRTVAAPSVFIFPPSDEQLKSGTASVVCLLNNFYPREAKVQWKVDNALQSGNSQESVTEQDSKDSTYSLSSTLTLSKADYEKHKVYACEVTHQGLSSPVTKSFNRGEC
notes: as m25, ECD of CD86; also called VHprot+VL (CD86); VH-CD86

binding result [4]: binds | binding result [5]: binds
B2: modified anti-SIRPa HEFLB antibody with ECD of OX40L on the heavy chain (antibody, human IgG4 S228P, kappa)
heavy: not shown
light: DVVMTQSPLSLPVTLGQPASISCRSSQSLVHSYGNTYLYWFQQRPGQSPRLLIYRVSNRFSGVPDRFSGSGSGTDFTLKISRVEAEDVGVYYCFQGTHVPYTFGGGTKVEIKRTVAAPSVFIFPPSDEQLKSGTASVVCLLNNFYPREAKVQWKVDNALQSGNSQESVTEQDSKDSTYSLSSTLTLSKADYEKHKVYACEVTHQGLSSPVTKSFNRGEC
notes: as m25, ECD of OX40L; also called VHprot+VL (OX40L); HEF-OX40L + LB

binding result [4]: binds | binding result [5]: binds
B3: modified anti-SIRPa HEFLB antibody with ECD of OX40L on the light chain (antibody, human IgG4 S228P, kappa)
heavy: not shown
light: DVVMTQSPLSLPVTLGQPASISCRSSQSLVHSYGNTYLYWFQQRPGQSPRLLIYRVSNRFSGVPDRFSGSGSGTDFTLKISRVEAEDVGVYYCFQGTHVPYTFGGGTKVEIKRTVAAPSVFIFPPSDEQLKSGTASVVCLLNNFYPREAKVQWKVDNALQSGNSQESVTEQDSKDSTYSLSSTLTLSKADYEKHKVYACEVTHQGLSSPVTKSFNRGECGGGGSGGGGSGGGGSQVSHRYPRIQSIKVQFTEYKKEKGFILTSQKEDEIMKVQNNSVIINCDGFYLISLKGYFSQEVNISLHYQKDEEPLFQLKKVRSVNSLMVASLTYKDKVYLNVTTDNTSLDDFHVNGGELILIHQNPGEFCVL
notes: as m32, ECD of OX40L; also called VH+VLprot (OX40L); HEF + LB-OX40L

EC50 [6]: 2.74 ng/mL | IC50 [7]: 304 ng/mL | EC50 [8]: 2.9 ng/mL | Kd [9]: 64.8 nM | koff [9]: 0.00319 s⁻¹ | kon [9]: 49300 M⁻¹ s⁻¹ | Kd [10]: 0.344 nM | koff [10]: 5.14e-05 s⁻¹ | kon [10]: 149000 M⁻¹ s⁻¹ | Kd [11]: 15.7 nM | koff [11]: 0.00138 s⁻¹ | kon [11]: 88400 M⁻¹ s⁻¹ | EC50 [12]: 4.06 ng/mL
B4: chimeric mouse/human 18D5 antibody (antibody, human IgG4 S228P, kappa)
heavy: not shown
light: DVVMTQTPLSLPVSLGDQASISCRSSQSLVHSYGNTYLYWYLQKPGQSPKLLIYRVSNRFSGVPDRFSGSGSGTDFTLKISRVEAEDLGVYFCFQGTHVPYTFGSGTKLEIKRTVAAPSVFIFPPSDEQLKSGTASVVCLLNNFYPREAKVQWKVDNALQSGNSQESVTEQDSKDSTYSLSSTLTLSKADYEKHKVYACEVTHQGLSSPVTKSFNRGEC
notes: mouse variable domains on human IgG4m (S228P) / kappa constant domains; also called chimeric antibody; chimeric 18D5

EC50 [13]: 4.61 ng/mL
B5: HELA (antibody, V domains shown)
VH: EVQLVQSGAEVKKPGESLRISCKASGYSFTSYWVHWVRQMPGKGLEWMGNIDPSDSDTHYSPSFQGHVTLSVDKSISTAYLQLSSLKASDTAMYYCVRGGTGTLAWFAYWGQGTLVTVSS
VL: DVVMTQSPLSLPVTLGQPASISCRSSQSLVHSYGNTYLYWYQQRPGQSPRLLIYRVSNRFSGVPDRFSGSGSGTDFTLKISRVEAEDVGVYFCFQGTHVPYTFGGGTKVEIK
notes: also called humanized 18D5 variant HELA

EC50 [12]: 5.6 ng/mL
B6: HCLA (antibody, human IgG4 S228P, kappa, V domains shown)
VH: EVQLVQSGAEVKKPGESLRISCKASGYSFTSYWVHWVRQMPGKGLEWMGNIDPSDSDTHYSPSFQGHVTLSVDKSISTAYLQLSSLKASDTAMYYCVRGGTGTMAWFAYWGQGTLVTVSS
VL: DVVMTQSPLSLPVTLGQPASISCRSSQSLVHSYGNTYLYWYQQRPGQSPRLLIYRVSNRFSGVPDRFSGSGSGTDFTLKISRVEAEDVGVYFCFQGTHVPYTFGGGTKVEIKR
notes: humanized 18D5 variant; also called humanized 18D5 variant HCLA

IC50 (read off the curve) [1]: ~200 ng/mL | binding result [2]: binds | EC50 (read off the curve) [3]: ~8 ng/mL
B7: modified anti-SIRPa HEFLB antibody with ECD of CD86 on the light chain (antibody, human IgG4 S228P, kappa)
heavy: not shown
light: DVVMTQSPLSLPVTLGQPASISCRSSQSLVHSYGNTYLYWFQQRPGQSPRLLIYRVSNRFSGVPDRFSGSGSGTDFTLKISRVEAEDVGVYYCFQGTHVPYTFGGGTKVEIKRTVAAPSVFIFPPSDEQLKSGTASVVCLLNNFYPREAKVQWKVDNALQSGNSQESVTEQDSKDSTYSLSSTLTLSKADYEKHKVYACEVTHQGLSSPVTKSFNRGECGGGGSGGGGSGGGGSAPLKIQAYFNETADLPCQFANSQNQSLSELVVFWQDQENLVLNEVYLGKEKFDSVHSKYMGRTSFDSDSWTLRLHNLQIKDKGLYQCIIHHKKPTGMIRIHQMNSELSVLANFSQPEIVPISNITENVYINLTCSSIHGYPEPKKMSVLLRTKNSTIEYDGVMQKSQDNVTELYDVSISLSVSFPDVTSNMTIFCILETDKTRLLSSPFSIELEDPQPPPDH
notes: as m32, ECD of CD86; also called VH+VLprot (CD86); HEF + LB-CD86
